Measurements published in the supplement of paper PMC9732359.
± gives the uncertainty stated by the source.

Test: protein stability index of a GFP-peptide fusion (yeast GPS) (PSI 1-4); higher = more stable; sorted into four equal gates, so the index is relative within each strain
How it was run: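 Yeast carrying a pooled library were grown to mid-log phase in leucine-free medium. Each library plasmid expresses Cherry and has a tiled 17-residue yeast protein peptide fused downstream of GFP. Cells were sorted into four equal gates by GFP/Cherry ratio, and plasmids from each gate were PCR-amplified, Illumina-sequenced and assigned to strains by barcode. Summing, across gates, the read frequency times the gate number gave each peptide's protein stability index.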

Sequence	protein stability index (doa10∆)	protein stability index (pdr5∆)	protein stability index (san1∆)	protein stability index (ubr1∆)
ENDAKKSKGDVDIKGED [NUT1]	3.18 ± 0.12	3.27 ± 0.2	2.95 ± 0.16	3.2 ± 0.12
ENDIEIKGPEFKFSGTV [YLR335W/NUP2]	2.72 ± 0.14	3.04 ± 0.12	3.07 ± 0.15	
ENDNLDNVSKNALDKLR [YCG1]	3.29 ± 0.099	3.15 ± 0.16	3.08 ± 0.08	3.26 ± 0.1
ENELVITSIPKPLTENC [RMP1]	3.42 ± 0.14	3.4 ± 0.11	3.39 ± 0.066	3.1 ± 0.07
ENENILIKAKNFLVFQG [SMC1]	1.22 ± 0.094	1.25 ± 0.12	1.96 ± 0.22	1.17 ± 0.11
ENIIQRLQAANSMEYTG [CDC53]	1.94 ± 0.065	2.32 ± 0.11	2.25 ± 0.18	1.9 ± 0.095
ENIPVALCKNRKCQFRT [POP1]	2.46 ± 0.048	2.68 ± 0.059	2.32 ± 0.079	1.96 ± 0.035
ENITNKVTEKVLTQLTA [CSI1]	2.62 ± 0.051	2.22 ± 0.037	2.4 ± 0.041	2.69 ± 0.041
ENLEESFLSKHALYLAP [SSN2]	3.12 ± 0.056	3.31 ± 0.065	3.26 ± 0.044	3.28 ± 0.05
ENSANSTVASALDTNGT [SIR4]	3.08 ± 0.097	3.18 ± 0.073	2.79 ± 0.09	2.86 ± 0.069
ENVEKKEAALKTMIKTI [SMC2]	1.93 ± 0.058	2.29 ± 0.077	1.73 ± 0.09	2.14 ± 0.039
EPAEANEENDLDVDPAK [RPB2]	3.3 ± 0.18	3.15 ± 0.19	3.17 ± 0.13	3.41 ± 0.17
EPDRDENWIHVSCLSFM [LIN1]	3.12 ± 0.051	3.07 ± 0.042	3.08 ± 0.042	3.11 ± 0.036
EPFFLVTKITDMLLHKY [SRB8]	2.86 ± 0.11	2.52 ± 0.088	2.88 ± 0.061	2.72 ± 0.083
EPIKVNVRVGQAVETVG [RPN1]	1.41 ± 0.16	2.26 ± 0.11	2.47 ± 0.11	2.44 ± 0.15
EPLAPGNDNLIKAPTVA [YLR335W/NUP2]	2.57 ± 0.067	2.77 ± 0.064	2.53 ± 0.053	2.88 ± 0.059
EPLTEIKNVIVSNRVAA [RPP0]	1.6 ± 0.076	2.1 ± 0.062	1.77 ± 0.11	1.95 ± 0.07
EPMKQLNATKISPSAPS [YAR002W/NUP60]	2.73 ± 0.075	2.91 ± 0.083	2.96 ± 0.062	2.77 ± 0.078
EPSDLRSWTLTSEMKVL [YGL100W/SEH1]	2.92 ± 0.049	2.77 ± 0.045	3.16 ± 0.052	3.37 ± 0.045
EPYVAYGYPSYSTIRQL [RPL7A]	1.87 ± 0.044	2.14 ± 0.048	2.14 ± 0.058	2.23 ± 0.036
EQDILDLIAEQVVTDYN [SSN2]	3 ± 0.17	3.44 ± 0.12	3.08 ± 0.18	2.47 ± 0.14
EQDPYSNASQMGNTGSG [RPB3]	2.7 ± 0.13	2.45 ± 0.14	2.21 ± 0.2	2.95 ± 0.1
EQGIELEHIDSKSEFAH [FAS2]	2.88 ± 0.096	2.15 ± 0.12	3.08 ± 0.13	2.15 ± 0.16
EQRHLKRELKRAQEEVK [RPT3]	3.13 ± 0.077	3.37 ± 0.12	2.95 ± 0.089	3.17 ± 0.078
ERAELETDEYISYTSHI [RPN1]	3.14 ± 0.071	3.19 ± 0.076	3.01 ± 0.065	3.19 ± 0.05
ERNEQEREIMNDHSKSA [SWI3]	3.27 ± 0.069	3.33 ± 0.066	3.1 ± 0.092	3.48 ± 0.084
ERPPLLPILPIQRLRLL [YOR098C/NUP1]	1.34 ± 0.1	2.36 ± 0.12	1.95 ± 0.18	1.9 ± 0.11

Sequence	protein stability index (doa10∆)	protein stability index (pdr5∆)	protein stability index (san1∆)	protein stability index (ubr1∆)
ERQQENLLIQRLNFNQN [SWI3]	3.26 ± 0.071	3.38 ± 0.073	3.2 ± 0.042	3.19 ± 0.055
ERRMQVTAEDFKQAKER [RPT2]	3.02 ± 0.1	3.29 ± 0.11	3 ± 0.088	3.56 ± 0.12
ERSLAVKYINFGKTVKD [RPC31]	3.09 ± 0.088	3.18 ± 0.1	2.99 ± 0.046	2.88 ± 0.058
ERSLRQKYNLLHVLPTL [SNM1]	1.22 ± 0.07	1.3 ± 0.13	2.03 ± 0.28	1.35 ± 0.17
ERTKLQEHTIFTQLKKN [SNU114]	1.46 ± 0.057	2 ± 0.056	1.97 ± 0.084	1.58 ± 0.039
ESAAVYNGRGARERKTA [SNF2]	2.55 ± 0.067	2.3 ± 0.057	2.76 ± 0.06	2.78 ± 0.06
ESELSLLEETQAKLKKN [SMC4]	2.7 ± 0.17	3.37 ± 0.2	2.88 ± 0.23	3.11 ± 0.14
ESFESYHNLTTHNSYEK [RPN6]	3.19 ± 0.068	3.17 ± 0.065	2.84 ± 0.075	3.28 ± 0.044
ESGEDEAEFSLRELSCC [RRP46]	3.24 ± 0.05	3.12 ± 0.075	3.2 ± 0.064	3.16 ± 0.066
ESGLRPVSLLNSQLVGK [PCI8]	3.31 ± 0.13	3.43 ± 0.096	3.27 ± 0.061	3.09 ± 0.27
ESGLVNADLDVKDELMF [RPO21]	3.16 ± 0.059	3.27 ± 0.06	3.23 ± 0.059	3.3 ± 0.038
ESISQTPISNEQTEGEP [SRP68]	3.21 ± 0.1	3.29 ± 0.16	3.16 ± 0.071	3.19 ± 0.065
ESLQKRELLKSQVEDFT [SIR3]	3.15 ± 0.045	3.22 ± 0.054	3.12 ± 0.048	3.27 ± 0.043
ESLSEEHASLLVRDSKP [MED8]	2.53 ± 0.084	3.04 ± 0.12	2.69 ± 0.086	2.59 ± 0.099
ESNNKKYPIFTGESWVK [YDL088C/ASM4]	2.73 ± 0.062	2.59 ± 0.081	2.33 ± 0.083	2.74 ± 0.06
ETDGKHGKRRSQVVETH [YMR129W/POM152]	3.27 ± 0.11	2.93 ± 0.097	3.21 ± 0.056	3.11 ± 0.048
ETEKFALERNWPIVNSK [RPN12]	3.19 ± 0.095	3.25 ± 0.12	3.13 ± 0.069	3.11 ± 0.086
ETERLISQSQLGKFKNI [SIN4]	3.09 ± 0.13			
ETHPDNSNKQAVAILAD [BRR2]	2.78 ± 0.053	2.93 ± 0.049	2.81 ± 0.045	2.98 ± 0.038
ETIQADLNHVTEELQTQ [SMC2]	3.21 ± 0.14	3.21 ± 0.06	3.02 ± 0.066	3.01 ± 0.1
ETLGDILKRDFELVSDL [ECM29]	3.27 ± 0.14	3.39 ± 0.17	2.95 ± 0.22	3.08 ± 0.17
ETLNDTIERSLIEEEVE [YCS4]	3.42 ± 0.14	3.43 ± 0.082	3.31 ± 0.056	3.33 ± 0.097
ETPKSNNSLSYHSGRLL [ITC1]	3.22 ± 0.14	3.06 ± 0.12	2.63 ± 0.13	3.32 ± 0.078
ETPNQDATYDSALELVG [RPN6]	2.62 ± 0.088	2.86 ± 0.072	2.61 ± 0.081	2.6 ± 0.1
ETQPGCNEEQTLEAKIG [RPO31]	3.21 ± 0.073	3.33 ± 0.069	2.96 ± 0.057	3.24 ± 0.053
ETSSFGSMFSGDNTSDV [RRI1]	3.48 ± 0.11	3.08 ± 0.13	3.25 ± 0.063	2.66 ± 0.15
